Consider four substances from PMC13132549.

Usually stoichiometry N stands for the number of molecules, sites or subunits per partner or assembly. The Kd is the concentration at which binding is half-saturated.

Test [1] concerns the target RXRγ (NR2B3) ligand-binding domain (LBD) (human) (UniProt P48443). The test can be described thus: SEC-MALS; 100 µL of each protein at 5 mg/mL (180 µM) injected; 40 mM potassium phosphate pH 7.4, 200 mM KCl; 25 °C. A general note: Size exclusion chromatography separates by hydrodynamic size, large species first.
For test [2] the target is unchanged. Put plainly: ITC; 500 µM Nur77 LBD titrated into 50 µM RXRγ LBD preincubated with vehicle (DMSO) or RXR ligand; 5 °C; 0.25% DMSO; homodimer competition model (SEDPHAT) for the data without ligand.
The target in another test is RXRα LBD (Homo sapiens) (UniProt P19793). The test can be described thus: ITC. The settings on record: cited from earlier work.
Sequence of UniProt P19793 (P19793 227-458): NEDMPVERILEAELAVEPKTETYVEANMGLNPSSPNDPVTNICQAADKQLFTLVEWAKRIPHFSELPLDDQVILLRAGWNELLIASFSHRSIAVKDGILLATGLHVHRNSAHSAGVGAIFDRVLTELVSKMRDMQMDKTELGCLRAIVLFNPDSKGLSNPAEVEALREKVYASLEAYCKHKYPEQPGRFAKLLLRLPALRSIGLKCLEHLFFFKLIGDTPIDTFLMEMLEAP
For test [3], the target named is RXRα (NR2B1) ligand-binding domain (LBD). The test can be described thus: SEC-MALS; 100 µL of each protein at 5 mg/mL (180 µM) injected; 40 mM potassium phosphate pH 7.4, 200 mM KCl; 25 °C.

Where “and” joins values, the source holds several entries; their conditions need not be identical. Identical values can stand only once.

Consider “RXRγ (NR2B3) ligand-binding domain (LBD) (from UniProt P48443 226-463) (domain or fragment)”, for which the stoichiometry N in test [1] is 2 and 4. In test [2], “Nur77 (NR4A1) ligand-binding domain (LBD) (from UniProt P22736 356-598) (domain or fragment)” yielded a Kd of 9 µM.

Consider Nurr1 LBD (from UniProt P43354), for which the Kd with RXRα LBD (Homo sapiens) is 4 µM.

For the substance “RXRα (NR2B1) ligand-binding domain (LBD) (domain or fragment)”, the stoichiometry N in test [3] is 2 and 4.
